Test results taken from US20170342349A1, “STABILIZED ENZYME COMPOSITIONS” (NOVOZYMES A/S, priority 2014, published 2017).
Where a chain is given by its changes, count along the chain named. Numbers in names are those of the source.

B1: L184F: protease variant of SEQ ID NO 3 (protein, listed as Bacillus sp.)
chain: AVPSTQTPWGIKSIYNDQSITKTTGGSGIKVAVLDTGVYTSHLDLAGSAEQCKDFTQSNPLVDGSCTDRQGHGTHVAGTVLAHGGSNGQGVYGVAPQAKLWAYKVLGDNGSGYSDDIAAAIRHVADEASRTGSKVVINMSLGSSAKDSLIASAVDYAYGKGVLIVAAAGNSGSGSNTIGFPGGFVNAVAVAALENVQQNGTYRVADFSSRGNPATAGDYIIQERDIEVSAPGASVESTWYTGGYNTISGTSMATPHVAGLAAKIWSANTSLSHSQLRTELQNRAKVYDIKGGIGAGTGDDYASGFGYPRVK
B2: S173P + S175P + F180Y + L184H: protease variant of SEQ ID NO 3 (protein, listed as Bacillus sp.)
chain: B1 chain with S173P, S175P, F180Y, F184H
B3: S111D: protease variant of SEQ ID NO 3 (protein, listed as Bacillus sp.)
chain: B1 chain with S111D, F184L
B4: S111E: protease variant of SEQ ID NO 3 (protein, listed as Bacillus sp.)
chain: B1 chain with S111E, F184L
B5: A145E: protease variant of SEQ ID NO 3 (protein, listed as Bacillus sp.)
chain: B1 chain with A145E, F184L
B6: S144R: protease variant of SEQ ID NO 3 (protein, listed as Bacillus sp.)
chain: B1 chain with S144R, F184L
B7: N60F + S100I: protease variant of SEQ ID NO 6 (protein)
chain: AQSVPWGISRVQAPAAHNRGLTGSGVKVAVLDTGISTHPDLNIRGGASFVPGEPSTQDGFGHGTHVAGTIAALNNSIGVLGVAPSAELYAVKVLGASEGIGSVSSIAQGLEWAGNNGMHVANLSLGSPSPSATLEQAVNSATSRGVLVVAASGNSGAGSISYPARYANAMAVGATDQNNNRASFSQYGAGLDIVAPGVNVQSTYPGSTYASLNGTSMATPHVAGAAALVKQKNPSWSNVQIRNHLKNTATSLGSTNLYGSGLVNAEAATR
modifications: Protease C
B8: A164S: protease variant of SEQ ID NO 6 (protein)
chain: B7 chain with F60N, I100S, A164S
modifications: Protease C
B9: S100I + Y166F: protease variant of SEQ ID NO 6 (protein)
chain: B7 chain with F60N, Y166F
modifications: Protease C
B10: S100I + L134V: protease variant of SEQ ID NO 6 (protein)
chain: B7 chain with F60N, L134V
modifications: Protease C

What was measured:
Assay type in all cases: biochemical
[1] = Inhibitor binding assay of SEQ ID NO 3 variants, Inhibitor 1, in Model B detergent; details: relative Ki, IF>1.0 = lower Ki
Description: (§1) Where E is the protease, I is the inhibitor and EI is the protease-inhibitor complex. […] The concentration of enzyme-inhibitor in the detergent solution is then given by:
(§2) where Etot is the total protease concentration ([Etot]=[E]+[EI]), Itot is the total inhibitor concentration ([Itot]=[I]+[EI]), and Ki is the equilibrium binding constant for the reaction. The measured slopes V are given by:
(§3) where V0 is the slope without inhibitor added. To calculate apparent binding constant Ki least square fitting of measured slopes at various inhibitor concentrations to this equation is performed with Ki and V0 as variables.
(§4) Purified protease variants are pre-diluted to approximately 0.2 mg/ml in dilution buffer. The experimental conditions are described in Table 5. 40 μl diluted protease is then mixed with 40 μl inhibitor solution Inhibitor 1: (Cbz-Gly-Ala-NHCH(CH2C6H4pOH)C(OH)(SO3Na)—H, wherein Cbz is benzyloxycarbonyl) or 40 μl Inhibitor 2: (4-FPBA) solution in the well of a 96 well microtiter plate (Nunc F 96-MTP). […] After 10 min mixing of protease and inhibitor at room temperature, 30 μl of the mixture is transferred to a microtiter plate (Nunc U96 PP 0.5 ml) with 270 μl Model B detergent (described in Table 1) in the wells resulting in inhibitor 1 concentrations of 0-30 μM and inhibitor 2 concentrations of 0-6000 μM. Protease, inhibitor and detergent is mixed for 1 hour using magnetic bars for 1 hour at room temperature to reach equilibrium. Then 20 μl is transferred to a microtiter plate (Nunc F 96-MTP). 100 μl substrate solution is added and after 5 sec mixing absorbance at 405 nm is measured every 20 sec for 5 min on a SpectraMax Plus reader. Slope from linear regression of initial increase in absorbance at 405 nm is used for calculation of apparent binding constants. Ki values were calculated according to the “Calculation of Ki” method described in “Materials and Methods”
(§5) Having the Ki for each variant, it is possible to calculate the effect of a single mutation, if data are available for at least two variants that differ only by that mutation. In this case, the relative Ki for the mutation (Improvement Factor, or IF) is calculated:
(§6) A lower Ki is desirable, as a satisfactory inhibition can be obtained at a lower inhibitor concentration, so beneficial mutations have an IF>1.0

[2] = Inhibitor binding assay of SEQ ID NO 3 variants, Inhibitor 2, in Model B detergent; details: in Model B relative to SEQ ID NO 3; relative Ki, IF>1.0 = lower Ki
Description: as §1, §2, §3, §4, §5, §6

[3] = Inhibitor binding assay of SEQ ID NO 6 variants, Inhibitor 1, in Model B detergent; details: in Model B relative to SEQ ID NO 6; relative Ki, IF>1.0 = lower Ki
Description: as §1, §2, §3
(§7) Purified protease variants are pre-diluted to approximately 0.2 mg/ml in dilution buffer. The experimental conditions are described in Table 5 40 μl diluted protease is then mixed with 40 μl inhibitor solution Inhibitor 1 or 40 μl inhibitor 2 solution in the well of a 96 well microtiter plate (Nunc F 96-MTP). […] After 10 min mixing of protease and inhibitor at room temperature, 30 μl of the mixture is transferred to a microtiter plate (Nunc U96 PP 0.5 ml) with 270 μl Model B detergent (described in Table 1) in the wells resulting in inhibitor 1 concentrations of 0-30 μM and inhibitor 2 concentrations of 0-6000 μM. Protease, inhibitor and detergent is mixed for 1 hour using magnetic bars for 1 hour at room temperature to reach equilibrium. Then 20 μl is transferred to a microtiter plate (Nunc F 96-MTP). 100 μl substrate solution is added and after 5 sec mixing absorbance at 405 nm is measured every 20 sec for 5 min on a SpectraMax Plus reader. Slope from linear regression of initial increase in absorbance at 405 nm is used for calculation of apparent binding constants. Ki values were calculated according to the “Calculation of Ki” method described in “Materials and Methods”
(§8) Having the Ki for each variant, it is possible to calculate the effect of a single mutation, if data are available for at least two variants that differ only by that mutation. In this case, the relative Ki for the mutation (Improvement Factor, or IF) is calculated: […]

[4] = Inhibitor binding assay of SEQ ID NO 6 variants, Inhibitor 2, in Model B detergent; details: in Model B relative to SEQ ID NO 6; relative Ki, IF>1.0 = lower Ki
Description: as §1, §2, §3, §7, §8

Row | inhibitor 2 binding constant improvement factors (IF) [2] | inhibitor 1 binding constant improvement factors (IF) [3] | inhibitor 2 binding constant improvement factors (IF) [4] | further results | Molecule
1 | 1.39 |  |  | inhibitor 1 binding constant improvement factors (IF) ([1]; in Model B relative to SEQ ID NO 3): 2.27 | B1
2 |  |  |  | inhibitor 1 binding constant improvement factors (IF) ([1]; in Model B relative to SEQ ID NO 3 comprising S173P + S175P + F180Y): 2.50 | B2
3 | 1.53 |  |  |  | B3
4 | 1.23 |  |  |  | B4
5 | 1.03 |  |  |  | B5
6 | 2.03 |  |  |  | B6
7 |  | 11.26 |  |  | B7
8 |  |  | 1.84 |  | B8
9 |  | 11.26 | 2.31 |  | B9
10 |  | 15.14 | 1.1 |  | B10
